Reference: the supplement of paper PMC9876800

Tested on: peptide library, one residue held at a place counted from the S/T acceptor
Test: relative phosphorylation of the sub-library (ratio to the mean residue at this position); higher = residue favoured
Summary of the method: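 Purified recombinant kinases (human or orthologue constructs) were incubated in 384-well plates with biotinylated degenerate peptide sub-libraries, each fixing one residue at one position around a central Ser/Thr. Peptides were at 50 μM, with 50 μM ATP spiked with γ-32P-ATP, for 90 min under kinase-specific conditions. Spots on streptavidin membranes were phosphorimaged and quantified by densitometry. Relative sub-library phosphorylation is a ratio to the mean residue at that position.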

Sequence of TBK1, construct: Full length, human (Q9UHD2 whole entry, looked up): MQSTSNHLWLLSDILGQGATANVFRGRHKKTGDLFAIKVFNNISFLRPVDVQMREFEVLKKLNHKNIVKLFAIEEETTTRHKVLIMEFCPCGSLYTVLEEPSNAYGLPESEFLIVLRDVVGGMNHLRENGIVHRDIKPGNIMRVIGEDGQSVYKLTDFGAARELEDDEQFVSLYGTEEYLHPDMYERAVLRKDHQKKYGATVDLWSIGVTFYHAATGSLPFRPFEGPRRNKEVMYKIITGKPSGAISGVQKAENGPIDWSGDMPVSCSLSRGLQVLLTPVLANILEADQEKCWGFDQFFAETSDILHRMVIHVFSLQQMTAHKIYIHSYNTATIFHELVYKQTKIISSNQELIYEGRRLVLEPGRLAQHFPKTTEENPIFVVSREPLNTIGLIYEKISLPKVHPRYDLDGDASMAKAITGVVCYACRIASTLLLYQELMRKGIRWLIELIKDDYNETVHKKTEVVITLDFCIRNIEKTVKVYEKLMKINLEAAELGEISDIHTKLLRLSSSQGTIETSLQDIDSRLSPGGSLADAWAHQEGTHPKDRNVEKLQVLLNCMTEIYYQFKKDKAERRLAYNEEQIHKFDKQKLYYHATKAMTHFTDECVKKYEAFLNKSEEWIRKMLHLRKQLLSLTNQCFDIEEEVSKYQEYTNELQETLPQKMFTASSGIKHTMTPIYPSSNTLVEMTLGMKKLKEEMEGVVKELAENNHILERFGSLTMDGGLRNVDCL
Sequence of WNK1, construct: aa171-529, human (Q9H4A3 171-529, looked up): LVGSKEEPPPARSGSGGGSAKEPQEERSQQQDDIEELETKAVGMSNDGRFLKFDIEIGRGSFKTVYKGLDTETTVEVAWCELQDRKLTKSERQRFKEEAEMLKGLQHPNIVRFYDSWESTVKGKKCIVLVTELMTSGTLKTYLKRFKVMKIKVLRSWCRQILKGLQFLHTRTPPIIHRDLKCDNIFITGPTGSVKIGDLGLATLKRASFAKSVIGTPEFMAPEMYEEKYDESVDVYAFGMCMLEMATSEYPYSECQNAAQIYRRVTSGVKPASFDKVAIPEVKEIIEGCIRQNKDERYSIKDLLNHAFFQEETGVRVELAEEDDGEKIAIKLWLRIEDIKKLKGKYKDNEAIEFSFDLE

TBK1, construct: Full length, human (from UniProt Q9UHD2)
relative phosphorylation
Conditions | at +1 | at +2 | at +3 | at +4 | at -1 | at -2 | at -3 | at -4 | at -5
A fixed | 0.37 | 1.01 | 0.9 | 0.857 | 1.09 | 0.967 | 1.04 | 1.04 | 1.06
D fixed | 0.296 | 0.857 | 0.879 | 0.864 | 0.882 | 1.15 | 1.27 | 1.29 | 1.16
E fixed | 0.214 | 0.903 | 0.869 | 0.945 | 0.855 | 1.06 | 1.32 | 1.13 | 1.18
F fixed | 1.85 | 1.22 | 1.31 | 1.23 | 0.885 | 1.33 | 0.781 | 0.789 | 0.923
G fixed | 0.548 | 0.851 | 0.974 | 0.897 | 0.814 | 1.12 | 1.56 | 1.19 | 1.19
H fixed | 0.557 | 1.09 | 1.16 | 1.05 | 1.11 | 1.06 | 1.08 | 1.04 | 1.21
I fixed | 2.31 | 1.23 | 0.75 | 1.12 | 0.853 | 0.589 | 0.68 | 0.789 | 0.771
K fixed | 0.249 | 0.616 | 0.555 | 0.768 | 1.13 | 0.613 | 0.985 | 1.07 | 1.19
L fixed | 3.03 | 1.22 | 1.04 | 1.09 | 1.06 | 0.864 | 0.568 | 0.903 | 0.805
M fixed | 2.85 | 1.27 | 1.1 | 1.14 | 1.29 | 1.16 | 0.928 | 0.998 | 0.8
N fixed | 0.349 | 1.02 | 0.962 | 0.876 | 0.957 | 0.883 | 1.09 | 1.2 | 1.09
P fixed | 0.178 | 0.765 | 1.16 | 1.04 | 1.26 | 1.83 | 1.24 | 1.08 | 0.981
Q fixed | 0.333 | 1.06 | 0.884 | 0.921 | 1.05 | 0.928 | 1.24 | 1.03 | 1.03
R fixed | 0.255 | 0.858 | 0.602 | 0.743 | 1.05 | 0.666 | 1 | 0.997 | 1.12
V fixed | 0.957 | 1.3 | 0.974 | 0.889 | 0.834 | 0.658 | 0.7 | 0.721 | 0.784
W fixed | 1.41 | 0.804 | 1.33 | 1.36 | 0.75 | 0.748 | 0.711 | 0.877 | 0.857
Y fixed | 1.24 | 0.931 | 1.54 | 1.22 | 1.12 | 1.39 | 0.812 | 0.861 | 0.859
pThr fixed | 0.465 | 0.783 | 0.625 | 0.849 | 0.582 | 0.817 | 1.14 | 1.01 | 1.06
pTyr fixed | 0.494 | 0.785 | 0.848 | 0.779 | 1.07 | 1.46 | 1.32 | 1.03 | 1.11

WNK1, construct: aa171-529, human (from UniProt Q9H4A3)
relative phosphorylation
Conditions | at +1 | at +2 | at +3 | at +4 | at -1 | at -2 | at -3 | at -4 | at -5
A fixed | 0.732 | 1.03 | 0.811 | 0.927 | 1.25 | 1.57 | 0.952 | 1.02 | 0.944
D fixed | 0.238 | 1.07 | 0.679 | 0.746 | 0.328 | 0.241 | 0.314 | 0.487 | 0.493
E fixed | 0.257 | 0.75 | 0.619 | 0.759 | 0.445 | 0.263 | 0.371 | 0.536 | 0.53
F fixed | 1.18 | 0.759 | 1.52 | 1.24 | 0.802 | 0.764 | 0.799 | 0.86 | 1.12
G fixed | 0.84 | 0.934 | 0.828 | 0.839 | 1.1 | 2.18 | 0.926 | 0.88 | 0.867
H fixed | 0.762 | 0.794 | 1.17 | 0.888 | 0.887 | 1.31 | 0.979 | 1 | 0.932
I fixed | 1.17 | 1.24 | 0.89 | 1.13 | 0.75 | 0.748 | 0.85 | 0.951 | 0.955
K fixed | 1.22 | 1.19 | 1.43 | 1.5 | 2.19 | 1.44 | 2.48 | 2.01 | 1.82
L fixed | 1.34 | 0.984 | 0.958 | 1.02 | 0.891 | 0.641 | 0.951 | 1.02 | 1.22
M fixed | 1.82 | 0.899 | 0.954 | 0.952 | 1.07 | 0.597 | 0.855 | 0.952 | 0.974
N fixed | 0.895 | 0.665 | 0.783 | 0.719 | 0.719 | 0.714 | 0.606 | 0.872 | 0.712
P fixed | 0.288 | 0.457 | 0.582 | 0.936 | 0.586 | 1.25 | 1.01 | 0.763 | 0.819
Q fixed | 1.18 | 0.65 | 0.734 | 0.861 | 1.21 | 0.954 | 0.845 | 0.795 | 0.698
R fixed | 2.01 | 2.97 | 1.69 | 1.37 | 2.5 | 2.25 | 2.63 | 1.83 | 1.54
V fixed | 0.986 | 1.21 | 0.809 | 0.992 | 0.971 | 0.957 | 0.961 | 1.06 | 1.12
W fixed | 0.888 | 0.635 | 1.23 | 1.08 | 0.574 | 0.462 | 0.621 | 0.856 | 1.11
Y fixed | 1.18 | 0.759 | 1.31 | 1.03 | 0.735 | 0.669 | 0.858 | 1.1 | 1.15
pThr fixed | 0.58 | 0.863 | 0.707 | 0.803 | 0.61 | 0.852 | 0.854 | 0.882 | 0.702
pTyr fixed | 0.662 | 0.911 | 0.849 | 0.78 | 0.789 | 0.573 | 0.806 | 0.666 | 0.637
